This is an account of results in patent US20170096461A1 (IMMATICS BIOTECHNOLOGIES, published 2017).

B1: peptide ALYSKGILL (SEQ ID NO: 95) (peptide)
peptide: ALYSKGILL
B2: peptide TLIQFTVKL (SEQ ID NO: 104) (peptide)
peptide: TLIQFTVKL
B3: peptide NLLKLIAEV (SEQ ID NO: 96) (peptide)
peptide: NLLKLIAEV
B4: peptide QMLEAIKALEV (SEQ ID NO: 99) (peptide)
peptide: QMLEAIKALEV
B5: peptide ALVDHLNVGV (SEQ ID NO: 98) (peptide)
peptide: ALVDHLNVGV
B6: peptide ALLDGTVFEI (SEQ ID NO: 97) (peptide)
peptide: ALLDGTVFEI
B7: peptide VADPETRTV (SEQ ID NO: 100) (peptide)
peptide: VADPETRTV
B8: peptide ALFARPDLLLL (SEQ ID NO: 102) (peptide)
peptide: ALFARPDLLLL
B9: peptide AMNSQILEV (SEQ ID NO: 101) (peptide)
peptide: AMNSQILEV
B10: peptide SLLEYQMLV (SEQ ID NO: 103) (peptide)
peptide: SLLEYQMLV

In this assay the target is T1, HLA-A*02:01 (peptide-receptive MHC class I monomer after UV-ligand exchange) (human).
T1 construct: Monomers made with a UV-sensitive peptide that is cleaved by UV and exchanged for the test peptide; captured on streptavidin plates; also called MHC molecules
Description: UV-ligand exchange + anti-b2m ELISA; exchange yield grade: + >=10%, ++ >=20%, +++ >=50, ++++ >=75%. The text has this:
Candidate peptides for T cell based therapies according to the present invention were further tested for their MHC binding capacity (affinity). The individual peptide-MHC complexes were produced by UV-ligand exchange, where a UV-sensitive peptide is cleaved upon UV-irradiation, and exchanged with the peptide of interest as analyzed. Only peptide candidates that can effectively bind and stabilize the peptide-receptive MHC molecules prevent dissociation of the MHC complexes. To determine the yield of the exchange reaction, an ELISA was performed based on the detection of the light chain (β2m) of stabilized MHC complexes. The assay was performed as generally described in Rodenko et al. (Rodenko et al., 2006).
96 well MAXISorp plates (NUNC) were coated over night with 2 ug/ml streptavidin in PBS at room temperature, washed 4× and blocked for 1 h at 37° C. in 2% BSA containing blocking buffer. Refolded HLA-A*02:01/MLA-001 monomers served as standards, covering the range of 15-500 ng/ml. Peptide-MHC monomers of the UV-exchange reaction were diluted 100 fold in blocking buffer. Samples were incubated for 1 h at 37° C., washed four times, incubated with 2 ug/ml HRP conjugated anti-β2m for 1 h at 37° C., washed again and detected with TMB solution that is stopped with […]. Absorption was measured at 450 nm. Candidate peptides that show a high exchange yield (preferably higher than 50%, most preferred higher than 75%) are generally preferred for a generation and production of antibodies or fragments thereof, and/or T cell receptors or fragments thereof, as they show sufficient avidity to the MHC molecules and prevent dissociation of the MHC complexes.
For orientation: ELISA stands for enzyme-linked immunosorbent assay.
With B1, the peptide exchange yield was not below 75%.

For B2, the peptide exchange yield fell in the range of 50 to 75%.

Turning to B3, the peptide exchange yield was not below 75%.

In the case of B4, the peptide exchange yield was not below 75%.

As for B5, the peptide exchange yield fell in the range of 50 to 75%.

With B6, the peptide exchange yield lay in the range of 50 to 75%.

As to B7, the peptide exchange yield fell in the range of 10 to 20%.

For B8, the peptide exchange yield was not below 75%.

B9: the peptide exchange yield lay in the range of 50 to 75%.

On to B10, for which the peptide exchange yield is not below 75%.
